Measurements from patent US12589164.

Legend:
[1] = tested on: (MCA)-His-Gln-Ser-Arg-Pro-Trp-Gly-Leu-Gly-Ser-Lys (DNP)-D-Arg (SEQ ID NO: 660)
[2] = tested on: (MCA)-His-Gln-Ser-Arg-Ser-Ala-Ile-Ala-Leu-Gly-Ser-Lys (DNP)-D-Arg (SEQ ID NO: 655)
[3] = tested on: (MCA)-His-Gln-Ser-Arg-Ser-Ala-Ile-Ala-Leu-X1-Gly-Lys (DNP)-D-Arg (SEQ ID NO: 654) where X1 is Y
[4] = tested on: (MCA)-His-Gln-Ser-Arg-Ser-Ala-Ile-Ala-Leu-X1-X2-Lys (DNP)-D-Arg (SEQ ID NO: 653) where X1 is Y and X2 is A
[5] = tested on: (MCA)-His-Gln-Ser-Arg-Ser-Gly-Pro-Trp-Gly-Leu-X1-Lys (DNP)-D-Arg (SEQ ID NO: 659) where X1 is absent
[6] = tested on: (MCA)-His-Gln-Ser-Arg-Ser-Pro-Trp-Gly-Gly-Ser-Lys (DNP)-D-Arg (SEQ ID NO: 661)
[7] = tested on: (MCA)-His-Gln-Ser-Arg-Ser-Pro-Trp-Gly-Leu-Gly-Lys (DNP)-D-Arg (SEQ ID NO: 665)
[8] = tested on: (MCA)-Ser-Pro-Trp-Gly-Leu-His-Gln-Ser-Arg-Gly-Lys (DNP)-D-Arg (SEQ ID NO: 663)
[9] = tested on: (MCA)-Ser-Pro-Trp-Gly-Leu-His-Gln-Ser-Arg-Ser-Lys (DNP)-D-Arg (SEQ ID NO: 657)
[10] = tested on: (MCA)-Ser-Pro-Trp-Gly-Leu-His-Gln-Ser-Lys-Ser-Lys (DNP)-D-Arg (SEQ ID NO: 664)
[11] = tested on: D-Arg-Lys (DNP)-Ala-Ile-Ala-Leu-His-Gln-Ser-Arg-Ser-Lys (MCA)-D-Arg (SEQ ID NO: 658)
[12] = tested on: peptide probe with CM AQSRSGPWGLL (SEQ ID NO: 641)
[13] = tested on: peptide probe with CM HASRSGPWGLL (SEQ ID NO: 642)
[14] = tested on: peptide probe with CM HQARSGPWGLL (SEQ ID NO: 643)
[15] = tested on: peptide probe with CM HQSASGPWGLL (SEQ ID NO: 644)
[16] = tested on: peptide probe with CM HQSRAGPWGLL (SEQ ID NO: 645)
[17] = tested on: peptide probe with CM HQSRSAPWGLL (SEQ ID NO: 646)
[18] = tested on: peptide probe with CM HQSRSGAWGLL (SEQ ID NO: 647)
[19] = tested on: peptide probe with CM HQSRSGPAGLL (SEQ ID NO: 639)
[20] = tested on: peptide probe with CM HQSRSGPWALL (SEQ ID NO: 648)
[21] = tested on: peptide probe with CM HQSRSGPWGAL (SEQ ID NO: 649)
[22] = tested on: peptide probe with CM HQSRSGPWGLA (SEQ ID NO: 650)

MMP9, sequence (chain, as listed by the source): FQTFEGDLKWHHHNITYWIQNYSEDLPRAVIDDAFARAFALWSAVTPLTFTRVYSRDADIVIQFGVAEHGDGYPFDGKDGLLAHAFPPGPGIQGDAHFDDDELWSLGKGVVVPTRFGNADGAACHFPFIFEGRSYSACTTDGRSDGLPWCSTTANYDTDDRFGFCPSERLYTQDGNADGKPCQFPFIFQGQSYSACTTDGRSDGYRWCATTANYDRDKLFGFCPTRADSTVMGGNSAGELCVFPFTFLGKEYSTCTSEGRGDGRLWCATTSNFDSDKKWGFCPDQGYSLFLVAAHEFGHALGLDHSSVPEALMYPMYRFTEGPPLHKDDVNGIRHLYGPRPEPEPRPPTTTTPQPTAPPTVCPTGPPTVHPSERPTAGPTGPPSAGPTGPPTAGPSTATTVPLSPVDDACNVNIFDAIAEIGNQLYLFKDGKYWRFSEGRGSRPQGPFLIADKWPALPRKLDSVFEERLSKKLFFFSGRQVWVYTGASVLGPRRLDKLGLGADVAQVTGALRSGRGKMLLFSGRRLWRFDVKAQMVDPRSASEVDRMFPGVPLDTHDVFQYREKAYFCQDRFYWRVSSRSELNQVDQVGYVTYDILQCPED

With MMP9 the Probe Cleavage (pM/s) [1] was 9600 pM/s, the Probe Cleavage (pM/s) [2] was 41.9 pM/s and the Probe Cleavage (pM/s) [3] was 328 pM/s. The Probe Cleavage Kcat/KM [3] was 57000 M⁻¹ s⁻¹, the Probe Cleavage (pM/s) [4] was 255 pM/s and the Probe Cleavage Kcat/KM [4] was 24000 M⁻¹ s⁻¹. The Probe Cleavage (pM/s) [5] was 705 pM/s, the Probe Cleavage (pM/s) [6] was 86.5 pM/s and the Probe Cleavage (pM/s) [7] was 372 pM/s. The Probe Cleavage Kcat/KM [7] was 11000 M⁻¹ s⁻¹, the Probe Cleavage (pM/s) [8] was 18600 pM/s and the Probe Cleavage (pM/s) [9] was 5150 pM/s. The Probe Cleavage Kcat/KM [9] was 120000 M⁻¹ s⁻¹, the Probe Cleavage (pM/s) [10] was 19300 pM/s and the Probe Cleavage (pM/s) [11] was 2550 pM/s. For the same substance, the Probe Cleavage (pM/s) [12] was 7380 pM/s, the Probe Cleavage (pM/s) [13] was 6470 pM/s and the Probe Cleavage (pM/s) [14] was 7430 pM/s. For the same substance, the Probe Cleavage (pM/s) [15] was 5410 pM/s, the Probe Cleavage (pM/s) [16] was 7440 pM/s and the Probe Cleavage (pM/s) [17] was 10700 pM/s. For the same substance, the Probe Cleavage (pM/s) [18] was 436 pM/s, the Probe Cleavage (pM/s) [19] was 13900 pM/s and the Probe Cleavage (pM/s) [20] was 7500 pM/s. It also gave a Probe Cleavage (pM/s) [21] of 5.9 pM/s and a Probe Cleavage (pM/s) [22] of 6810 pM/s.
